Measured values reported in US20150152150A1.

Molecular target: human Y4 receptor (human) (UniProt P50391)
Experiment: cell-based or functional assay

human Y4 receptor (human), sequence (P50391 whole entry): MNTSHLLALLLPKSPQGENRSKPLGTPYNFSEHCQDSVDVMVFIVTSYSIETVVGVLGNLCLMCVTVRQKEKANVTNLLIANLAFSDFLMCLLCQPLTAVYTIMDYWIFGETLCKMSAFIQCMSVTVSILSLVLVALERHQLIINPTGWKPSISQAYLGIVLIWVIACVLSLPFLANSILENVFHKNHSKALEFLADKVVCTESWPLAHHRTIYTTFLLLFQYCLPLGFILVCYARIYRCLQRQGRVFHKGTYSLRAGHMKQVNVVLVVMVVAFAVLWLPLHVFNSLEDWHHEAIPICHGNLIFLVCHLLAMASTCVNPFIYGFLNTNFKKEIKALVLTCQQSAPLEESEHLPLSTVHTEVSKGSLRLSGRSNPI

EC50, Actone functional potency assay, > 1000 nM:
4-N{alpha}-(3-Methylbutanoyl)-7-N{Epsilon}-[2-[2-[2-[[2-[2-[2-[[(4S)-4-carboxy-4-(16-sulfohexadecanoylamino)-butanoyl]amino]ethoxy]ethoxy]acetyl]amino]ethoxy]-ethoxy]acetyl]-[Arg4,Lys7,D-isoAsp11,Gln18,Trp30,NMeArg35]hPYY(4-36) (peptide)
4-N{alpha}-(3-Methylbutanoyl)-7-N{Epsilon}-[2-[2-[2-[[2-[2-[2-[[(4S)-4-carboxy-4-(16-sulfohexadecanoylamino)butanoyl]amino]ethoxy]ethoxy]acetyl]amino]-ethoxy]ethoxy]acetyl]-[Lys7,Gln18,Trp30,NMeArg35]hPYY(4-36) (peptide)
4-N{alpha}-(3-Methylbutanoyl)-7-N{Epsilon}-[2-[2-[2-[[2-[2-[2-[[(4S)-4-carboxy-4-[[(4S)-4-carboxy-4-(16-sulfohexadecanoylamino)butanoyl]amino]butanoyl]amino]-ethoxy]ethoxy]acetyl]amino]ethoxy]ethoxy]acetyl]-[Lys7,Gln18,Trp30,NMeArg35] hPYY(4-36) (peptide)

Molecular target: human Y1 receptor (human) (UniProt P25929)
Sequence (P25929 whole entry): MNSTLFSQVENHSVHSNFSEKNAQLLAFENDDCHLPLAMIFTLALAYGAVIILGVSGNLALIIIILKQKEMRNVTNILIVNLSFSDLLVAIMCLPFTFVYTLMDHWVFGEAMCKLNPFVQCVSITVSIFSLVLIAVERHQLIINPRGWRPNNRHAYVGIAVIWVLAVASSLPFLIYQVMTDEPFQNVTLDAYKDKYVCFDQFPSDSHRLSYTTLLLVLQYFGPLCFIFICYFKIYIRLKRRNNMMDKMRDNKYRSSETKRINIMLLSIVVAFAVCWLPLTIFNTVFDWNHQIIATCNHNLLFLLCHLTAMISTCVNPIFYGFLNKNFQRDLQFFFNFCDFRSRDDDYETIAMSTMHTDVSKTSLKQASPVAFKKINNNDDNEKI
Experiment: cell-based or functional assay

EC50, Actone functional potency assay, > 1000 nM:
4-N{alpha}-(3-Methylbutanoyl)-7-N{Epsilon}-[2-[2-[2-[[2-[2-[2-[[2-[2-[2-[[(4S)-4-carboxy-4-(16-sulfohexadecanoylamino)butanoyl]amino]ethoxy]ethoxy]acetyl]-amino]ethoxy]ethoxy]acetyl]amino]ethoxy]ethoxy]acetyl]-[Arg4,Lys7,Gln18,Trp30,NMeArg35]hPYY(4-36) (peptide)
4-N{alpha}-(3-Methylbutanoyl)-7-N{Epsilon}-[2-[2-[2-[[2-[2-[2-[[(4S)-4-carboxy-4-(14-carboxy-tetracanoylamino)butanoyl]amino]ethoxy]ethoxy]acetyl]]amino]ethoxy]-ethoxy]acetyl]-[Arg4,Lys7,Gln18,Trp30,NMeArg35]hPYY(4-36) (peptide)
4-N{alpha}-(3-Methylbutanoyl)-7-N{Epsilon}-[2-[2-[2-[[2-[2-[2-[[(4S)-4-carboxy-4-(14-sulfotetradecanoylamino)butanoyl]amino]ethoxy]ethoxy]acetyl]]amino]ethoxy]-ethoxy]acetyl]-[Arg4,Lys7,Gln18,Trp30,NMeArg35]hPYY(4-36) (peptide)
4-N{alpha}-(3-Methylbutanoyl)-7-N{Epsilon}-[2-[2-[2-[[2-[2-[2-[[(4S)-4-carboxy-4-(15-carboxypentadecanoylamino)butanoyl]amino]ethoxy]ethoxy]acetyl]amino]-ethoxy]ethoxy]acetyl]-[Arg4,Lys7,Gln18,Trp30,NMeArg35]hPYY(4-36) (peptide)
4-N{alpha}-(3-Methylbutanoyl)-7-N{Epsilon}-[2-[2-[2-[[2-[2-[2-[[(4S)-4-carboxy-4-(16-carboxy-hexadecanoylamino)butanoyl]amino]ethoxy]ethoxy]acetyl]]amino]ethoxy]-ethoxy]acetyl]-[Arg4,Lys7,Gln18,Trp30,NMeArg35]hPYY(4-36) (peptide)
4-N{alpha}-(3-Methylbutanoyl)-7-N{Epsilon}-[2-[2-[2-[[2-[2-[2-[[(4S)-4-carboxy-4-(16-sulfohexadecanoylamino)-butanoyl]amino]ethoxy]ethoxy]acetyl]amino]ethoxy]-ethoxy]acetyl]-[Arg4,Lys7,Gln18,Trp30,NMeArg35]hPYY(4-36) (peptide)
4-N{alpha}-(3-Methylbutanoyl)-7-N{Epsilon}-[2-[2-[2-[[2-[2-[2-[[(4S)-4-carboxy-4-(16-sulfohexadecanoylamino)butanoyl]amino]ethoxy]ethoxy]acetyl]amino]-ethoxy]ethoxy]acetyl]-[Lys7,Gln18,Trp30,NMeArg35]hPYY(4-36) (peptide)
4-N{alpha}-(3-Methylbutanoyl)-7-N{Epsilon}-[2-[2-[2-[[2-[2-[2-[[(4S)-4-carboxy-4-(17-carboxyheptadecanoylamino)butanoyl]amino]ethoxy]ethoxy]acetyl]amino]ethoxy]-ethoxy]acetyl]-[Arg4,Lys7,Gln18,Trp30,NMeArg35]hPYY(4-36) (peptide)
4-N{alpha}-(3-Methylbutanoyl)-7-N{Epsilon}-[4-[3-[2-[2-[3-[[4-[3-[2-[2-[3-[[(4S)-4-carboxy-4-(16-sulfohexadecanoylamino)butanoyl]amino]propoxy]ethoxy]-ethoxy]propylamino]-4-oxobutanoyl]amino]propoxy]ethoxy]ethoxy]propylamino]-4-oxobutanoyl]-[Arg4,Lys7,Gln18,Trp30,NMeArg35]hPYY(4-36) (peptide)
4-N{alpha}-(3-Methylbutanoyl)-7-N{Epsilon}-[4-[3-[2-[2-[3-[[(4S)-4-carboxy-4-(16-sulfohexadecanoylamino)butanoyl]amino]propoxy]ethoxy]ethoxy]propylamino]-4-oxobutanoyl]-[Arg4,Lys7,Gln18,Trp30,NMeArg35]hPYY(4-36) (peptide)
4-N{alpha}-(3-Methylbutanoyl)-7-N{Epsilon}-[(2S)-2-amino-6-[[2-[2-[2-[[(4S)-4-carboxy-4-(16-sulfohexadecanoylamino)butanoyl]amino]ethoxy]ethoxy]acetyl]-amino]hexanoyl]]-[Arg4,Lys7,Gln18,Trp30,NMeArg35]hPYY(4-36) (peptide)
4-N{alpha}-(3-methyl-pentanoyl)-7-N{Epsilon}-[2-[2-[2-[[2-[2-[2-[[(4S)-4-carboxy-4-(16-sulfohexadecanoylamino)butanoyl]amino]ethoxy]ethoxy]acetyl]amino]-ethoxy]ethoxy]acetyl]-[Lys7,Gln18,Trp30,NMeArg35]hPYY(4-36) (peptide)
4-N{alpha}-(hexanoyl)-7-N{Epsilon}-[2-[2-[2-[[2-[2-[2-[[(4S)-4-carboxy-4-(16-sulfohexadecanoylamino)butanoyl]amino]ethoxy]ethoxy]acetyl]amino]ethoxy]-ethoxy]acetyl]-[Arg4,Lys7,Gln18,Trp30,NMeArg35]hPYY(4-36) (peptide)
7-N{Epsilon}-[2-[2-[2-[[2-[2-[2-[[2-[2-[2-[[2-[2-[2-[4-[16-(1H-tetrazol-5-yl)-hexadecanoylsulfamoyl]butanoylamino]ethoxy]ethoxy]acetyl]amino]ethoxy]-ethoxy]acetyl]amino]ethoxy]ethoxy]acetyl]amino]ethoxy]ethoxy]acetyl]-[Lys7,Gln18,Trp30,NMeArg35]hPYY(3-36) (peptide)
7-N{Epsilon}-[2-[2-[2-[[2-[2-[2-[[(4S)-4-carboxy-4-(16-sulfohexadecanoylamino)-butanoyl]amino]ethoxy]ethoxy]acetyl]amino]ethoxy]ethoxy]acetyl]-[Arg4,Lys7,Gln18, Trp30,NMeArg35]hPYY(3-36) (peptide)
7-N{Epsilon}-[2-[2-[2-[[2-[2-[2-[[(4S)-4-carboxy-4-(16-sulfohexadecanoylamino)-butanoyl]amino]ethoxy]ethoxy]acetyl]amino]ethoxy]ethoxy]acetyl]-[Lys7,Gln18, Trp30,NMeArg35]hPYY(3-36) (peptide)
